# Measurements published in patent publication US12077763B2, “RNA-based control of powdery mildew” (Greenlight Biosciences, Inc., priority 2021, dated 2024).
# B1: GS1836: dsRNA trigger SEQ ID NO 121; gene target Integral membrane protein/Pth11 homolog (nucleic acid)
# DNA: GCTTTTCAATGTCGACCTGCAAACTACCTTTGGCAACAACTTGATTCAAAATTATATTCTGGAAGCTGTTTGAGCAAGGAGAGTATAGCCGATATTATATATGCTCATGCATCTATAAGTTGTTTAATTGACTGGATCTTTGGGATATTACCGATTTTAATTCTCTGGAAACTCGACATGAAGTTCAAGACCAAGCTCTCTATAATGATCGTTCTTTCATTAAGTATAGTAGCCTCTATAGCTACTGTTATACGTATTATTTACCTCCATATTCTTAAGAATGTGTCACAATCCGGTTGGGATGGTTTTGGATTAATAAAATGGTCTTTACTAGAACCAGCCATTGCCTTGACAGCTGCAAATATTGCAACTCTCAGGCCACTTACGCAAAAGTTATTTTCAAAAAAACGACGACCATCTAAATCACAACCACCTAAGCTTTCTCTCAATGCTATTCGGGGCTTAAGTCGGAAGTCTTCAGTATGTTGTTCAAGTGAATTTGCAGATATGTTAGGGCTAGCAGTATCACCTGGCGTGAAAACTCGAGTCTATGCTGATAGAAGACTTGATAACACTATCCAAAAAAGA
# B2: GS1834: dsRNA trigger SEQ ID NO 189; gene target Tubulin beta-2 chain (nucleic acid)
# DNA: CTCGTCCATTCCTTCTCCAGTATACCAATGTAAGAAAGCTTTTCTTCTAAACATAGCTGTGAATTGATCCCCAACGCGCTTAAAGAGTTCTTGAATGGAAGTGGAGTTTCCTACAAATGTAGATGACATCTTAAGACCACGAGGTGGAATAGAGCAGAGTGCGGTTTGTACATTATTAGGGATCCACTCGACAAAATATGCAGAGTTCTTATTTTGTACATTGCGCATTTGGTCCTCTACTTCTTTCATTGATACCTTACCTCGAAATATTGCTGAACATGTTAAATAGCGCCCGTTTCGGAAATCAGACGCTGCCATCATATTTTTGGGGTCGTACATTTGCTGAGTCAACTCGGGAACAGTAACTGCGCGGAAAGAGTGGGCACCGCGACTTGTTAGAGGAGCAAATCCAACCATAAAAAAATGAAGACGAGGAAATGGAACCATGTTAACTGCTAACTTTCGAAGATCTGAGTTGAGTTGACCTGGGAAACGAAGACATGTTGTTACACCTGACATGACTGCAGATACCAAATGATTCAAATCACCATATGATGGGTTTGAAAGCTTTAAAGTTCTCATACATATTT
# B3: GS1842: dsRNA trigger SEQ ID NO 130; gene target AP-1 complex subunit gamma-1 (nucleic acid)
# chain: GCCAATGCCTTGAGCGTCTGAACAAGACTTCCAGTGAGTGGTCTAAACTTCTCTACTATATTCTCTTCACCTTCTTCATCAGCTTCTATGTCGGCCTCGCAAAGGCTAGTGACAAGTGTCAAGCCACAAAGGAGAACTCCATGATTTCGATCTGAAATAAGTGTTTCTGCTTTTTCGAAGAAATGCTCTTGAAGATCTGGCACTTTCTTGCAAATACGCATAGCACATAGAGCAGCCTTCTTACGAATATATGGGTTTGCTGTGGAAAGGAGATTTTCTATCTCTGGAAAGAGATCTCTTGACATTTCGATTGATGCGATGTTGCCTAGCGTACAGAGGGCTAGTCCGACTATGTATTGATTAGAGTGATTGAGATCGTTCTTTAAGGAGTTTGTAACTAAGGTAAGAACCTCTTGATTTTCGTCTAAAAGCAACATGGTCCCTAAGTAACCAAGGCGTTTGTCGGCGAAACGAGGAGACGCAAGTAATTTAAGGCATTCTATCTGGCCAAAGTGGGTTCTTTCCCCAAGTGTGAAGAGATATAACAACTTTGCAACGTTATTACGTCTGACATTG
# B4: GS1837: dsRNA trigger SEQ ID NO 199; gene target UDP-glucose: glycoprotein glucosyltransferase 1 (nucleic acid)
# DNA: AAAATCTAGGCAAATCCTTGAAAAACTCAGAGCTTTTTTTTTCAATAAAATTCAAGTCAAAAAAATTCAGATCTTTTCGATTTTCAGGAATAATCAATTTATTTCTGCGATTTATCGCTTGATTTAAAAATATACTAGGCACCCAAAAATCTTGACTTCTCACATTTTCTGTCCCAAGGACAATAGTTTGCTGAATTAATTGTAGATCTGTATATATCTGTTGACTCATTTTCTGAAGCCAGAATTCATCTTTCGGTATAACAACGCCATTAATGATAACTGGGGGAACAAGGTCATCTGCACAAATCCTGTCTACCCATTTTTGGGACGATTGAATTCGACTCTCGAGCTCATCTGATTTCAAAACTTCGTCGAAAATTATTCGGGTTTTATTAGTCTTAATTTTTGCTTTCTGGGTGATTTGGTCGAATACATCCTTACTGTTTAAGCTAAGCTTTGATTCATTTTGTGACCGTAAATATGCTATTGCAGTTTGTAATCCATAAATTTCAATAAGGTGATAAATTACTTTTGCTTCGATTGCAGCATTTGAGTTTCTGATGACGGGAATGAGACCAATTCGGAT
# B5: GS1835: dsRNA trigger SEQ ID NO 159; gene target Probable glutamine--fructose-6-phosphate aminotransferase [isomerizing] (nucleic acid)
# DNA: CCGATGACAAGGGGAGATCCTTTTCTTGCCGCAATTACTTCATGGGGATAATGGACTGATTTTAGTAGAAGTCCAAATGCTCCTTGCAGCTCCTTGATGACGGCCTTAGCTAAGTCCGTAAAAGTAATTGTTGGGTGCTGGTCATATATATACTTAGCAAGCTTGGCAATACACTCAGTATCAGTCTCTGTCTCAAATTTATGGCCCTTTGAGATAAGTAGGGTTTTGAGCTCTTTATAGTTTATTATGATTCCATTATGAACAACACTGAACTGCCATTTGGGGTCACTACGATGAGGATGGCAATTCAATCTTGATGGAGGGCCATGGGTGGCCCATCTAGTATGTGCAATACCAGCATGGGAGTCAAAAACTTTGGAGTTATCTAGTTGCGACTCCTGGACAAGTTGCTTTAATTTTGCAACCTTTCCAACTTCTTTGAACGCAAAAACTTCATCTTTTTCATCCCCGTCAATTGCGAGCCCGGCACTGTCGTAGCCACGGTATTCCAAGCGAGAGAGACCGTTGACAAGTGTTTCAAGAATGTGTTTGCGATCCTTTTCAATGAGATAATTAATATAGCCAAAGAT
# B6: GS1839: dsRNA trigger SEQ ID NO 194; gene target Thioredoxin (nucleic acid)
# chain: CTGACCGGGGCGCTATTACGATTAAATGAGCTGTTTTCCCCAGCGCTATAAGCATCCAGGGAGAATAAGGTTACAAAATATAATCCGAAAAAAGATAAAAAAGTATTTATCAATTGTTTCAAATCGAATGGCTTAGACAACTGTGTACTCGGACTCTTAGTACTCCCTAGAGTTCGTCCTTCTGAGGTATATGATAGACCTTCTAGGCCTGCAAGTCTGATGACAGACTCGATAGCAGTTCTTAAAGTAGACTGATCAGCGCCACGGATCGTATTGGCAATAGAGCCAGATCGAAAGATAATGAAGCTGGGAAGTGCTCTAACTCCATAACGCTGAGAAATATCCTGGTGATTGTCTACATTGACCTTGACAAAGGTGATCCTGTTCGGTTTCGAGTATTTGGAAGCAAGACTTTCGAAGGTGGGAGCAATAGCATTACATGGGCCGCACCAGTCGGCATAAACTAACCCAGCCATTAGTAGATTTAGTTAATCGGTGACGACTACTTTTGAAGAGTTCAAAATTTTGTCAAACTGAGATGAGGATCTGATACGGATAGACATGCTTTCTTTCTGTTCAA
# B7: GS1840: dsRNA trigger SEQ ID NO 196; gene target Ubiquitin-conjugating enzyme E2-16 kDa (nucleic acid)
# chain: TTGACTCTAGTTTTAAATACACATAAATGTTTGCTCAAACTATCTAGAGATTTTGCGTCTTGTAAAAAAATACTATATATGAAATATTATTGTGTACTATTGATGTATGAACTCGATGTGAGGTTTAAAATCTTATTGCTGCCATAGATAATCAAAAAATTATATTAATCCTATCCTTTTGGAACGATTCCTAATAGCAGATGTGTGTTCGTCTCTGTCCTTTGAATGACTCATTTCAGTCCAAATCTTCGTTGCTAATTCATCCACTCATTTCATAGCATATTTTTTTGTCGCTTTAACCGCCTCTTCATTAAATTCATTCCTGTTATTCCTGTATCTATCTGCTAATGCCGTTTCTACCGCATCATCAAGTACCGGCTCGGTCAGCATTTGCTGCGTTGCCATCAAAATATTGATGATTCGAGATGATGGTTTCCAGGCATCTGGTTTGAGAGCACCAATACACATACTACCCTGCTCATCAAAAGTCACATTTGGATGGTAGATACGAGTTTTGAACGATAGTTTTGGTGGCTTAAAAGGATAGTCTGAGGGGAGCGTTAAAAGAAGTTCAAAGTTA
# B8: GS1833: dsRNA trigger SEQ ID NO 151; gene target Eukaryotic translation Initiation factor 3 subunit G (nucleic acid)
# DNA: ACCTCACTAGGGCCTTCAGTAGTTTCATTAATACTAGTTAAAGCATCTCCGCTGTTTTCTTCACCAATTGGAGCCATTGTATCTTTAAAGGGACATCGGGCTGTAAAATGCTCTCCATTACATATACGACATTTAACTTTCTTATCTTTTAATTTGTCTTTCATTATTCCTGCCTCTGTTTTTTCATCTTTGGCATCTTTTTTCCAGTTGGCACTCGGTCTGAAAGTTATATTTTCACCAATAGATGTGGTTGAGCTATCTGGTCCGGGTTGATCTTTAGCAGAGAGTCCAAATTTACTCCACTGCTTTCTCTCGGCAACTCTAGGATTTACAATTTCTTTGTGTGTAGTGAAACGAATTCGTCTGGTATATTTGATCTTTTTTCCATCTTCATCGATTCGATAACTTACGATAGTTTGAGAGCCATCTTTATTAGTTGTTGTAGTTGTAGGAGGAAGTTGTTCTTCAATCCGGTCAACGGAAAGATCTTCATCGTCGGCCCAGTCAGCGCGAACAGATTGTTTAGACATTTTTCAAAATATTTTAATTAAATACTTGCAAATGGAAAGCTTGTAAATTCAAGCAAGTAT
# System: E. necator
# Assay: Leaf disc assay, dry inoculum (settling tower), decrease in disease severity / hyphal growth (Example 2)
# Conditions: decrease in disease severity (hyphal growth) relative to untreated control, value ± SE; for % decrease =/− SE TP1: time point 1 (untreated control hyphal growth ≥50%); for % decrease =/− SE TP2: time point 2
Molecule,% decrease =/− SE TP1 [%],% decrease =/− SE TP2 [%]
B1,23 ± 6,22 ± 6
B2,8 ± 4,15 ± 6
B3,6 ± 7,
B4,15 ± 7,18 ± 8
B5,25 ± 6,24 ± 6
B6,20 ± 7,18 ± 7
B7,21 ± 6,11 ± 10
B8,12 ± 5,7 ± 5
